Here are results for 5 molecules from patent US20230220038A1, “BRI2 BRICHOS DOMAIN FOR DELIVERY OF PROTEINS INTO CNS NEURONS” (ALPHABETA AB, priority 2021, published 2023).

One data set has as its system wild type mice. The following applies: mouse, in vivo, iv, 10 mg/kg. The method, then:
Two different types of commercially available microbubbles, either Definity® (Lantheus Medical Imaging, MA, USA) or SonoVue® (Bracco, Milan, Italy) were administered at a dose of 5 μl/g body weight. For one part of the study (FIG. 3A), a total of […] mice were divided into four groups that received, respectively, i.v. injections of microbubbles and PBS (n=4), microbubbles and 1 (n=4), 10 (n=6) or 20 (n=4) mg/kg body weight of rh Bri2 BRICHOS-AU1 (SEQ ID NO: 11). In the second part of the study (FIG. 3B), a total of 3 mice were administered 20 mg/kg rh Bri2 BRICHOS-mCherry (SEQ ID NO: 12) (n=1) or microbubbles+20 mg/kg rh Bri2 BRICHOS-mCherry (n=2) intravenously. […]
96-well plates (Nunc MicroWell™) were coated with anti Bri2 BRICHOS capture antibody diluted in coating buffer (50 mM carbonate pH 9.6) and incubated overnight at 4° C. […] The reaction was stopped by adding stop solution for TMB substrates (Thermo Fisher) and absorbance was measured at 450 nm, using the values for brain homogenates from the non-treated mouse as blank. […]
Calculation of concentrations and total amounts of rh Bri2 BRICHOS-AU1 in each brain hemisphere was assessed by assuming a brain density of […], an average brain hemisphere weight of 225 mg and average of total protein in brain hemisphere homogenates of 25.6 mg.

Data set [1] concerns hCMEC/D3 cells.
Experimental: hCMEC/D3 cells (MilliporeSigma, Burlington, Mass.) were cultivated in EndoGRO-MV Complete Media (MilliporeSigma, Burlington, Mass.), supplemented with 1 ng/ml recombinant human fibroblast growth factor basic (FGF-2, Gibco, Invitrogen, Waltham, Mass.) and penicillin-streptomycin (100 IU/ml, 100 μg/ml, Gibco, Thermo Fisher Scientific, Waltham, Mass.) in T75 tissue culture flasks (TC-coated, DeltaLab, Spain) coated with 5-10 μg/cm^2 rat tail collagen type I (MilliporeSigma, Burlington, Mass.).
(§1) Cell viability was assessed by tetrazolium-based Thiazolyl Blue Tetrazolium Bromide (MTT) assay. For the MTT assay, 50 000 cells/cm^2 were seeded onto clear 96-well plates (TC, Cellstar, Greiner Bio-One, Austria) and grown until confluent, after which the cells were treated with the rh BRICHOS domains in 8 replicates for 24 h in a humidified atmosphere (5% CO2/95% air) at 37° C. Treated cells were incubated with 0.5 mg/ml MTT (Sigma-Aldrich, St. Louis, Mo.) solution in FBS-free cell media for 4 h in a humidified atmosphere (5% CO^2/95% air) at 37° C. The MTT solution was removed and the formazan crystals were dissolved in Dimethyl sulfoxide (DMSO, Sigma-Aldrich, St. Louis, Mo.) and incubated with shaking for 15 min. Absorbance was measured at 570 nm using a FLUOstar OPTIMA microplate reader (BMG Lab Tech, Germany). Untreated cells were used as positive control, and media without cells was used as a negative control. Also 2 μM Staurosporine from Streptomyces sp. (SP, Sigma-Aldrich, St. Louis, Mo.) was used as a negative control.
Data set [2] relates to hCMEC/D3 cells. As to the kind of experiment: Cell uptake by western blot, hCMEC/D3. Format: cell-based, human. Conditions: hCMEC/D3, 2 h and 24 h, western blot of cell lysate. The method, then:
Once confluent, the hCMEC/D3 cells were treated with 1 μM rh Bri2 BRICHOS monomers, oligomers or proSP-C monomers for 2 h and 24 h. […] Untreated cells were used as control. After the treatment, the cells were lysed as described for the HEK-293 cells.
(In general: Immunoblotting shows a protein as a band on a membrane.)

Data set [3] relates to SH-SY5Y cells.
Experimental: Human neuroblastoma (SH-SY5Y) cell line (ATCC, Manassas, Va.) was grown in Dulbecco's Modified Eagle's Medium (DMEM, PAN-Biotech, Germany) with 4.5 g/L glucose, glutamine (2 mM) and 3.7 g/L NaHCO3, supplemented with 10% Fetal Bovine Serum (FBS, Sera Plus, PAN-Biotech, Germany) and penicillin-streptomycin (100 IU/ml, 100 μg/ml) in TC-coated T75 tissue culture flasks.
as §1
In data set [4] the test system is SH-SY5Y cells. As to the kind of experiment: Cell uptake by western blot, SH-SY5Y. Format: cell-based, human. The following applies: 24 h incubation, western blot band intensities of cell lysate.
In the next data set the test system is hCMEC/D3 monolayer. On the procedure: For the preparation of the hCMEC/D3 cell monolayers, transwell ethylene terephthalate (PET) membrane inserts (24-well, clear, pore size 0.4 μm, CellQART, SABEU GmbH & Co. KG, Germany) were coated with rat tail type I collagen (150 μg/ml in 1× Dulbecco's Phosphate-buffered saline pH 7.4, 1×DPBS, Gibco, Thermo Fisher Scientific, Waltham, Mass.) for 2 h at 37° C. […] Media was changed every second day and the cell monolayer was established by day 6.
Experiments were conducted on culture day 6 by adding different BRICHOS protein constructs, or relevant controls to the apical side of the hCMEC/D3 monolayer. […] After the incubation, medium on the apical and basolateral sides of the monolayer was removed and analyzed by Western blotting and the band intensities measured by ImageJ. […] For mCherry and mCherry-Bri2 BRICHOS monomers, fluorescence intensity of the apical and basolateral medium was recorded at λex 570 nm and λem 610 nm, after which the cells were fixed and analyzed by fluorescence microscopy to analyse the uptake of mCherry or mCherry-Bri2 BRICHOS into cells.
FITC fluorescence was measured at λex 492 nm and λem 518 nm. Insulin permeability was determined by western blot and an anti-Insulin monoclonal primary antibody (Sigma, St. Louis, Mo.) at 1:1000 dilution. […]

B1: rh Bri2 BRICHOS-AU1: Rh Bri2 BRICHOS domain, residues 113-231 of Bri2, linked to an AU1 tag at the C-terminal end (SEQ ID NO: 11) (protein, listed as Homo sapiens)
chain: GSQTIEENIKIFEEEEVEFISVPVPEFADSDPANIVHDFNKKLTAYLDLNLDKCYVIPLNTSIVMPPRNLLELLINIKAGTYLPQSYLIHEHMVITDRIENIDHLGFFIYRLCHDKETYKLDTYRYI
modifications: DOMAIN 3..121 Rh Bri2 BRICHOS domain; DOMAIN 122..127 AU1 tag
As for B1, the “percent of the total amount administered detected in the brain” value in the data set on wild type mice is recorded as 1%.

B2: Bri2 BRICHOS monomers: recombinant human Bri2 BRICHOS (113-231) wild-type, monomeric species (SEQ ID NO: 2) (protein, listed as Homo sapiens)
chain: QTIEENIKIFEEEEVEFISVPVPEFADSDPANIVHDFNKKLTAYLDLNLDKCYVIPLNTSIVMPPRNLLELLINIKAGTYLPQSYLIHEHMVITDRIENIDHLGFFIYRLCHDKETYKL
In the case of B2, the “toxicity / cell mitochondrial activity, result in words” value (“toxicity / cell mitochondrial activity” below) in the data set with hCMEC/D3 cells [1] and in the data set on SH-SY5Y cells [3] was “no toxicity” throughout. Besides, the “cell uptake, result in words” value in the data set on hCMEC/D3 cells [2] is “taken up”; in the data set on SH-SY5Y cells [4], “linear uptake”.

B3: NT-Bri2 BRICHOS: rh fusion protein: NT* solubility tag followed by human Bri2 residues 113-231 (protein, UniProt Q9Y287 113-231, looked up, fragment)
chain: QTIEENIKIFEEEEVEFISVPVPEFADSDPANIVHDFNKKLTAYLDLNLDKCYVIPLNTSIVMPPRNLLELLINIKAGTYLPQSYLIHEHMVITDRIENIDHLGFFIYRLCHDKETYKL
modifications: NT* spider silk solubility tag
B3: the “hCMEC/D3 monolayer permeability, result in words” value with hCMEC/D3 monolayer was “only the monomers show permeability”.

B4: Bri2 BRICHOS crude: recombinant human Bri2 BRICHOS (113-231) wild-type, crude solution (protein, UniProt Q9Y287 113-231, looked up, fragment)
chain: QTIEENIKIFEEEEVEFISVPVPEFADSDPANIVHDFNKKLTAYLDLNLDKCYVIPLNTSIVMPPRNLLELLINIKAGTYLPQSYLIHEHMVITDRIENIDHLGFFIYRLCHDKETYKL
With B4, the “toxicity / cell mitochondrial activity” value in the data set with hCMEC/D3 cells [1] and in the data set on SH-SY5Y cells [3] was “slight decrease in the cell mitochondrial activity” in each case.

B5: Bri2 BRICHOS oligomers: recombinant human Bri2 BRICHOS (113-231) wild-type, oligomeric species (protein, UniProt Q9Y287 113-231, looked up, fragment)
chain: QTIEENIKIFEEEEVEFISVPVPEFADSDPANIVHDFNKKLTAYLDLNLDKCYVIPLNTSIVMPPRNLLELLINIKAGTYLPQSYLIHEHMVITDRIENIDHLGFFIYRLCHDKETYKL
modifications: oligomers
notes: recombinant human Bri2 BRICHOS (113-231) wild-type, oligomeric species
As to B5, the “toxicity / cell mitochondrial activity” value with hCMEC/D3 cells [1] and in the data set on SH-SY5Y cells [3] was “slight decrease in the cell mitochondrial activity” throughout. Moreover, the “cell uptake, result in words” value in the data set on hCMEC/D3 cells [2] is given as “seem not to be taken up”; in the data set with SH-SY5Y cells [4], “detected in the cell lysate to a lesser degree”.
